Test results taken from the supplement of paper PMC10724198.
± gives the standard deviation of the averaged measurements.

What was measured:
[1] = system: Saccharomyces cerevisiae; test: protein stability index of tFT-peptide fusion (C-terminal peptide) (PSI (0-1 scale)); higher = more stable (slower turnover)
Experimental: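 MPS profiling in S. cerevisiae of the tFT-X12 degron library: putative degron peptides plus stable controls, 12 aa, fused to the C-terminus of a sfGFP-mCherry timer. Cells are FACS-sorted into 8 mCherry/sfGFP bins and deep-sequenced. PSI runs from 0 (unstable) to 1 (stable). Backgrounds are wild type, das1Δ and doa10Δ at 30 °C, and wild type, das1Δ, cdc34-1 and cdc53-1 at 37 °C; 2-3 technical replicates each.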

[2] = system: Saccharomyces cerevisiae; test: as above; details: genetic background: wild type; temperature: 30 C
[3] = genetic background: cdc34-1, temperature: 37 C
[4] = genetic background: cdc53-1, temperature: 37 C
[5] = genetic background: das1 deletion, temperature: 30 C
[6] = genetic background: das1 deletion, temperature: 37 C
[7] = genetic background: doa10 deletion, temperature: 30 C
[8] = genetic background: wild type, temperature: 30 C
[9] = genetic background: wild type, temperature: 37 C
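Also: PSI is a weighted mean of sequencing reads over stability bins, variants kept only with over 10 reads, mCherry proximal and sfGFP distal, peptide attached via GGGS linker.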

Sequence	protein stability index [1, 3]	protein stability index [1, 4]	protein stability index [1, 5]	protein stability index [1, 6]	protein stability index [1, 7]	protein stability index [1, 8]	protein stability index [1, 9]	protein stability index [2]
PPRPSPPPHPLP	0.658 ± 0.028	0.7181 ± 0.0022	0.6737 ± 0.003	0.727 ± 0.011	0.681 ± 0.017	0.686 ± 0.01	0.6974 ± 0.0035	0.746 ± 0.059
SIQMNCILLLVI	0.211 ± 0.041	0.224 ± 0.021	0.213 ± 0.026	0.339 ± 0.012	0.188 ± 0.032	0.186 ± 0.024	0.299 ± 0.028	0.298 ± 0.058
FTYFFFVRVLLV	0.11 ± 0.045	0.14 ± 0.01	0.156 ± 0.031	0.2772 ± 0.00032	0.11 ± 0.0067	0.118 ± 0.0091	0.129 ± 0.0084	0.187 ± 0.0053
VGHVFLGVVWLV	0.44 ± 0.043	0.573 ± 0.014	0.457 ± 0.031	0.6 ± 0.0034	0.0977 ± 0.0055	0.101 ± 0.013	0.0863 ± 0.011	0.163 ± 0.013
AHSFKCVGVAVR	0.4628 ± 0.00085	0.504 ± 0.01	0.332 ± 0.024	0.5469 ± 0.0017	0.309 ± 0.004	0.347 ± 0.032	0.544 ± 0.0072	0.3246 ± 0.0014
CFLPFFIIFIFV	0.214 ± 0.006	0.177 ± 0.019	0.209 ± 0.037	0.32781 ± 3.9e-05	0.271 ± 0.0063	0.197 ± 0.031	0.301 ± 0.015	0.29 ± 0.0067
DLDLLTKFSKEC	0.702 ± 0.028	0.77 ± 0.013	0.628 ± 0.043	0.743 ± 0.028	0.4783 ± 0.0024	0.503 ± 0.025	0.656 ± 0.018	0.466 ± 0.03
LDIFRKLVIVLC	0.0767 ± 0.013	0.0777 ± 0.02	0.18 ± 0.033	0.2628 ± 0.00073	0.102 ± 0.027	0.107 ± 0.025	0.0878 ± 0.0015	0.169 ± 0.07
LLLLLPLYLLPI	0.24 ± 0.031	0.177 ± 0.037	0.31 ± 0.035	0.412 ± 0.021	0.553 ± 0.035	0.322 ± 0.017	0.368 ± 0.0062	0.372 ± 0.048
SVTFVVYFISGG	0.522 ± 0.025	0.608 ± 0.023	0.409 ± 0.022	0.578 ± 0.028	0.426 ± 0.048	0.421 ± 0.022	0.548 ± 0.0076	0.513 ± 0.039
QHIDTLAKTHIT	0.73 ± 0.036	0.74493 ± 0.00055	0.632 ± 0.008	0.7219 ± 0.005	0.605 ± 0.03	0.634 ± 0.033	0.7 ± 0.012	0.606 ± 0.15
HVLLSSSASIVV	0.623 ± 0.015	0.6613 ± 0.0046	0.534 ± 0.019	0.6449 ± 0.0028	0.534 ± 0.03	0.529 ± 0.026	0.63 ± 0.047	0.536 ± 0.058
FQILLRFFRSVA	0.5907 ± 0.0037	0.657 ± 0.025	0.551 ± 0.022	0.612 ± 0.0079	0.189 ± 0.003	0.206 ± 0.029	0.4 ± 0.017	0.324 ± 0.017
IGKEKRMKVIQI	0.65 ± 0.025	0.69 ± 0.022	0.624 ± 0.018	0.735 ± 0.019	0.433 ± 0.0078	0.477 ± 0.0096	0.615 ± 0.013	0.516 ± 0.065
EGLRVSVCAWVM	0.38 ± 0.043	0.467 ± 0.0075	0.313 ± 0.03	0.4385 ± 0.0017	0.253 ± 0.019	0.277 ± 0.013	0.421 ± 0.0079	0.339 ± 0.023
AVCVGILIWATV	0.0816 ± 0.0045	0.0998 ± 0.009	0.176 ± 0.029	0.275 ± 0.013	0.142 ± 0.018	0.165 ± 0.025	0.264 ± 0.017	0.314 ± 0.08
FLLIVSSVSFYL	0.209 ± 0.016	0.2981 ± 0.00045	0.213 ± 0.024	0.3885 ± 0.0014	0.177 ± 0.0069	0.207 ± 0.021	0.346 ± 0.0035	0.342 ± 0.052
SVFFALFLRCTP	0.26 ± 0.058	0.229 ± 0.055	0.34 ± 0.031	0.442 ± 0.005	0.43 ± 0.026	0.323 ± 0.024	0.405 ± 0.02	0.359 ± 0.05
SCPEFNIRVRNG	0.641 ± 0.033	0.669 ± 0.047	0.661 ± 0.023	0.731 ± 0.012	0.138 ± 0.022	0.168 ± 0.028	0.409 ± 0.045	0.297 ± 0.11
VWVISLCIGGGG	0.297 ± 0.0044	0.369 ± 0.015	0.24 ± 0.028	0.405 ± 0.011	0.213 ± 0.025	0.225 ± 0.021	0.3796 ± 0.0035	0.312 ± 0.013

Sequence	protein stability index [1, 3]	protein stability index [1, 4]	protein stability index [1, 5]	protein stability index [1, 6]	protein stability index [1, 7]	protein stability index [1, 8]	protein stability index [1, 9]	protein stability index [2]
ESCVRSRRVLLC	0.564 ± 0.063	0.71 ± 0.032	0.621 ± 0.013	0.73 ± 0.027	0.129 ± 0.044	0.127 ± 0.017	0.196 ± 0.0075	0.221 ± 0.026
FFCRARHRLYVA	0.537 ± 0.044	0.626 ± 0.059	0.626 ± 0.012	0.675 ± 0.0094	0.0986 ± 0.0092	0.105 ± 0.0095	0.152 ± 0.061	0.233 ± 0.023
HSLLLWLLVFFR	0.441 ± 0.013	0.511 ± 0.01	0.388 ± 0.027	0.516 ± 0.0056	0.3609 ± 0.0034	0.367 ± 0.018	0.508 ± 0.012	0.413 ± 0.036
NARNPKKNRDQI	0.697 ± 0.037	0.7226 ± 0.0072	0.627 ± 0.026	0.705 ± 0.032	0.633 ± 0.02	0.666 ± 0.058	0.70322 ± 0.00025	0.524 ± 0.093
LEALRFTFYHFF	0.683 ± 0.038	0.7891 ± 0.0068	0.615 ± 0.016	0.788 ± 0.029	0.203 ± 0.0091	0.222 ± 0.018	0.41 ± 0.014	0.34252 ± 7.1e-06
LSFRLSYPLPIY	0.418 ± 0.017	0.47 ± 0.025	0.352 ± 0.034	0.5403 ± 0.0029	0.1 ± 0.013	0.108 ± 0.0014	0.132 ± 0.0069	0.178 ± 0.032
SALLLWAISIIC	0.0476 ± 0.0084	0.117 ± 0.055	0.169 ± 0.031	0.221 ± 0.011	0.117 ± 0.019	0.15 ± 0.023	0.185 ± 0.011	0.22 ± 0.015
VVFILLFFVFCR	0.253 ± 0.027	0.271 ± 0.016	0.24 ± 0.031	0.371 ± 0.0061	0.296 ± 0.013	0.25 ± 0.021	0.314 ± 0.022	0.294 ± 0.019
LVFCFRSLFLCS	0.57 ± 0.057	0.603 ± 0.0097	0.542 ± 0.012	0.6784 ± 0.0048	0.254 ± 0.014	0.243 ± 0.019	0.39121 ± 0.00016	0.34 ± 0.022
LLFVVGTGRWVG	0.665 ± 0.022	0.736 ± 0.011	0.629 ± 0.029	0.744 ± 0.024	0.159 ± 0.0042	0.183 ± 0.033	0.482 ± 0.035	0.302 ± 0.046
WRFFLLLFFFGF	0.493 ± 0.0066	0.536 ± 0.024	0.44 ± 0.04	0.601 ± 0.045	0.425 ± 0.0095	0.428 ± 0.024	0.531 ± 0.012	0.465 ± 0.026
CYSRRGCIYFFF	0.564 ± 0.029	0.693 ± 0.009	0.583 ± 0.016	0.698 ± 0.0099	0.0971 ± 0.018	0.101 ± 0.022	0.157 ± 0.0033	0.192 ± 0.037
TPPIRCRLVRFL	0.656 ± 0.059	0.735 ± 0.017	0.626 ± 0.029	0.7526 ± 0.00097	0.2071 ± 0.0014	0.219 ± 0.018	0.496 ± 0.0056	0.335 ± 0.029
VNWGFLVLLFQL	0.446 ± 0.017	0.513 ± 0.025	0.39 ± 0.035	0.561 ± 0.018	0.219 ± 0.029	0.25 ± 0.021	0.4111 ± 0.00064	0.324 ± 0.011
KCKIWFREVSMN	0.658 ± 0.018	0.7475 ± 0.007	0.647 ± 0.015	0.729 ± 0.06	0.1748 ± 0.0015	0.216 ± 0.019	0.414 ± 0.027	0.32 ± 0.066
FPRLERVAVMAR	0.117 ± 0.035	0.127 ± 0.035	0.177 ± 0.032	0.244 ± 0.0086	0.145 ± 0.0069	0.167 ± 0.025	0.221 ± 0.031	0.25 ± 0.011
FRFFRPSFRFFC	0.588 ± 0.015	0.713 ± 0.021	0.624 ± 0.0092	0.7518 ± 0.0026	0.107 ± 0.014	0.118 ± 0.0071	0.221 ± 0.033	0.2 ± 0.06
RSGGVPGFGRLC	0.703 ± 0.033	0.7361 ± 0.0064	0.661 ± 0.02	0.7301 ± 0.003	0.658 ± 0.034	0.653 ± 0.022	0.723 ± 0.037	0.745 ± 0.014
GFVRTVWLMCYV	0.286 ± 0.027	0.341 ± 0.017	0.285 ± 0.025	0.417 ± 0.013	0.129 ± 0.017	0.161 ± 0.012	0.203 ± 0.013	0.245 ± 0.032
